Results: the DeepSol protein solubility set

Test: soluble on expression in E. coli; label from the status in PepcDB or PDB records

Sequence	soluble on expression in E. coli
MKQYGFYVDSSRCSGCKTCQVSCKDNKDLDVGPKLRRVYEYGGGSWVKEGESWHHDTFTYYLSIACNHCDEPVCVSGCPTGAMHKRKEDGLVVVDDSVCVGCRYCEMRCPYGAPQFDTQANVMRKCDGCLDRLENNLRPICVDSCPQRALDFGPVDELRAKYGTENQIAPLPSASFTHPNLIIKPHPKARPTGDTEGAIMNIREVRHA	not soluble
AQHPPYCRNQPGKCQIPLQSLFDRATTVANYNSKLAGEMVNRFDEQYGQGINSESKVINCHTSSITTPNSKAEAINTEDKILFKLVISLLHSWDEPLHHAVTELANSKGTSPALLTKAQEIKEKAKVLVDGVEVIQKRIHPGEKNEPYPVWSEQSSLTSQDENVRRVAFYRLFHCLHRDSSKIYTYLRILKCRLTSCET	soluble
MRTFCILKDFKIFIIFFLQNPCGGEGLNILERIAKEVQEETKVRLHARNVERVLQALLKTGDFWKIVDYSDLPVPAASGIIKKFLDEGIVFIDENENILFTQKGLDLVKELGIEPFEEHKCRACEGRGIPFYDDKELYRTFVEIAKDRPKPVQQYDQGSVTPETTVSRVLFLDSRGDLRGKEIIVMGAEDDLTGLAIALTRKAKRVLIIDIDERLIDFDNRIIKELGIDNAEAMVWDLRNPYTEDFLGKFDVFITDPPETFAAFRAFIGRGIATLKDAGCAGYFGLTLRDSSIFRWKEFQEILINEYGVVITDIIQDFNDYMNWEYHPETRAAQIAPVKKNPTDIWYRSAWYRIETLPGFKRWNEPISDEVFYLDEEGSTT	not soluble
MEHNQEIMEQFLKLLSENGRAGQSEDLSRLLFYMDGMNRQLDAVRQELQTVKVQLAQAQDTPQKTVLQGMVDGLQSKVRQAQEKLDSLREKIMQCAANAVESFKRVGVTALDKAVSAMGIHKTLEAVQQNISGSLDDARKSIKKVETLGHELRSVGGHLKNAGRAVAGRETQAVDGGQEGRFQAAFLAPMRTAYKMLSSMNNTTLAAIGNVERLETAAEAVREAKKPPVRQTETQEKEQVKELEHKEEPTETQRREKPSIRQTLTEKSEPMDVSDILSDPANIQIFDTVLEESCRQWCDCIGDAPERASGKGFASFFYEVFEQKEQEYKAELKADTRSEKPSIRKALNEKKAEAAARPSPEPERKAPEAAR	not soluble
MGNCLKSPTSDDISLLHESQSDRASFGEGTEPDQEPPPPYQEQVPVPVYHPTPSQTRLATQLTEEEQIRIAQRIGLIQHLPKGVYDPGRDGSEKKIRECVICMMDFVYGDPIRFLPCMHIYHLDCIDDWLMRSFTCPSCMEPVDAALLSSYETN	soluble
MSLYSSENDYIILEDKTATGKKRDWKGKKRRTNLMAEHYEALQSKTGIPYYGKKAEKLCSCAECLSFKRDPETGKLKLYQAQFCKVRLCPMCAWRRSLKIAYHNKLIVEEANRQYGCGWIFLTLTVRNVEGDGLKPMIADMMKGWNRLFGYKRVKVATLGYFRALEITKNHEEDTYHPHFHVLLPVKKSYFTHNYIKQSEWTSLWKRAMKLDYTPIVDIRRVKGRAKIDAEQIESDVREAMMEQKAVLEISKYPVKDTDVVRGNKVTEDNLNTVFYLDDALSARRLIGYGGILKEIHKELNLGDAEDGDLVKIEEEDDEVANEAFEVMAYWHPGIKNYIIREGHHHHHH	not soluble
MEISGEEDKEEAVTLPKEVSKISISDGNKFVYQILNGPNEQCFENFRMDKPVFYKLCDLLQTRGLLRHTNRIKIEAQLAIFLFIIGHNLRTRAVQELFCYSGETISRHFNNVLNAVIAISKDFFQPNSNSDTLENDDPYFKDCVGVVDSFHIPVMVGVDEQGPFRNGNGLLTQNVLAASSFDLRFNYVLAGWEGSASDQQVLNAALTRRNKLQVPQGKYYIVDNKYPNLPGFIAPYHGVSTNSREEAKEMFNERHKLLHRAIHRTFGALKERFPILLSAPPYPLQTQVKLVIAACALHNYVRLEKPDDLVFRMFEEETLAEAGEDREVALEEEQVEIVGQEHGFRPEEVEDSLRLRDEIASELWNHYVQNMSTF	soluble
MFMIKVITPETNHPKEGGILSALVSIYNCTIHIRKPRFTADQYKKYLHDHNQLLSHFVLHEHHSLAKEFPVMGVHLKELDRINPAQVHPDIKIISTSIHSIADAGNLSHPFEYIFYSPLFQSISKENYGTNNSLADLKKTVSELKEQTGIPIIGLGGIYEANIDLVKKSGFDGAALLGAVWVQSDPLAAFGRIASMILEHHHHHH	not soluble
